Laboratory results: FireProtDB (doi:10.1002/pro.2449)

B1: Guanyl-specific ribonuclease Sa, P05798 (parent)
chain: DVSGTVCLSALPPEATDTLNLIASDGPFPYSQDGVVFQNRESVLPTQSYGYYHEYTVITPGARTRGTRRIITGEATQEDYYTGDHYATFSLIDQTC

Variants of: B1
Settings: Kitasatospora aureofaciens; pH 7; Thermal; DSC; MOPS; transition: 2; reversible: yes; structure 1RGG; whole UniProt chain shown

Variant: DVSGTVCLSALPPEATDTLNLIASDGPFPYSQDGVVFQNRESVLPTQSYGYYHEYTVITPGARTRGTRRIITGEATQEDYYTGDHYATFALIDQTC [S90A]
- change of melting temperature, mutant - wild type (higher = more stable): 0.7 °C
- ddG of mutation (higher = less stable): -0.2 kcal/mol
- unfolding enthalpy (calorimetric): 86 kcal/mol

Variant: DVSGTVCLSALPPEATDTLNLIASDGPFPYSQDGVVFQNRESVLPTQAYGYYHEYTVITPGARTRGTRRIITGEATQEDYYTGDHYATFSLIDQTC [S48A]
- change of melting temperature, mutant - wild type (higher = more stable): 1.7 °C
- ddG of mutation (higher = less stable): -0.5 kcal/mol
- unfolding enthalpy (calorimetric): 92 kcal/mol

Variant: DVSGTVCLSALPPEATDTLNLIASDGPFPYSQDGVVFQNREAVLPTQSYGYYHEYTVITPGARTRGTRRIITGEATQEDYYTGDHYATFSLIDQTC [S42A]
- change of melting temperature, mutant - wild type (higher = more stable): 0.4 °C
- ddG of mutation (higher = less stable): -0.1 kcal/mol
- unfolding enthalpy (calorimetric): 92 kcal/mol

Variant: DVAGTVCLSALPPEATDTLNLIASDGPFPYSQDGVVFQNRESVLPTQSYGYYHEYTVITPGARTRGTRRIITGEATQEDYYTGDHYATFSLIDQTC [S3A]
- change of melting temperature, mutant - wild type (higher = more stable): -1.1 °C
- ddG of mutation (higher = less stable): 0.3 kcal/mol
- unfolding enthalpy (calorimetric): 86 kcal/mol
